Reference: patent publication US20190352367A1 (CLEVELAND CLINIC FOUNDATION, published 2019)
One block for each binder: values may come before it.

Columns and labels:
[1] = biological target: T1, Focal Adhesion Kinase (FAK), SPR ligand (UniProt Q05397 1-1052, limits assumed); experiment: SPR, peptide as analyte, FAK as ligand
T1 construct: the FAK preparation is not described

[2] = biological target: T2, Nanog transcription factor (NANOG), SPR ligand (UniProt Q9H9S0 1-305, limits assumed); experiment: SPR, peptide as analyte, NANOG as ligand
T2 construct: the NANOG preparation is not described
T2 sequence (Q9H9S0 whole entry): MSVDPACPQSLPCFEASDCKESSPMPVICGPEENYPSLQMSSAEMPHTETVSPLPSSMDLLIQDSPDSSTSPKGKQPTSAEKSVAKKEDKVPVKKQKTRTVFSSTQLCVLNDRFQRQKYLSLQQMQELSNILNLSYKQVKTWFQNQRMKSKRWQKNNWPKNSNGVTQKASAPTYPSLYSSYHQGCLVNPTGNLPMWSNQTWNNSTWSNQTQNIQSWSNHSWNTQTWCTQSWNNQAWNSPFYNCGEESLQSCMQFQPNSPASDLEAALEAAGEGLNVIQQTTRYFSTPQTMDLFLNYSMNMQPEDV

[3] = biological target: Connexin 26 (Cx26), endogenous or overexpressed in breast cell lysates (UniProt P29033 1-226); experiment: reciprocal co-immunoprecipitation (anti-Cx26, anti-FAK) from bulk MCF7 and MCF10A lysates, western blot; non-immune IgG as control

Kd [1]: 14.9 µM
Kd [2]: 0.17 µM
Binder: RYCSGKSKKPV (also called cytoplasmic tail of Cx26) [Cx26 blocking peptide 5 (C-terminus)]

binding result [3]: binds
B1: Focal adhesion kinase (FAK), endogenous in breast cell lysates (enzyme)
chain: AAAYLDPNLNHTPNSSTKTHLGTGMERSPGAMERVLKVFHYFESNSEPTTWASIIRHGDATDVRGIIQKIVDSHKVKHVACYGFRLSHLRSEEVHWLHVDMGVSSVREKYELAHPPEEWKYELRIRYLPKGFLNQFTEDKPTLNFFYQQVKSDYMLEIADQVDQEIALKLGCLEIRRSYWEMRGNALEKKSNYEVLEKDVGLKRFFPKSLLDSVKAKTLRKLIQQTFRQFANLNREESILKFFEILSPVYRFDKECFKCALGSSWIISVELAIGPEEGISYLTDKGCNPTHLADFTQVQTIQYSNSEDKDRKGMLQLKIAGAPEPLTVTAPSLTIAENMADLIDGYCRLVNGTSQSFIIRPQKEGERALPSIPKLANSEKQGMRTHAVSVSETDDYAEIIDEEDTYTMPSTRDYEIQRERIELGRCIGEGQFGDVHQGIYMSPENPALAVAIKTCKNCTSDSVREKFLQEALTMRQFDHPHIVKLIGVITENPVWIIMELCTLGELRSFLQVRKYSLDLASLILYAYQLSTALAYLESKRFVHRDIAARNVLVSSNDCVKLGDFGLSRYMEDSTYYKASKGKLPIKWMAPESINFRRFTSASDVWMFGVCMWEILMHGVKPFQGVKNNDVIGRIENGERLPMPPNCPPTLYSLMTKCWAYDPSRRPRFTELKAQLSTILEEEKAQQEERMRMESRRQATVSWDSGGSDEAPPKPSRPGYPSPRSSEGFYPSPQHMVQTNHYQVSGYPGSHGITAMAGSIYPGQASLLDQTDSWNHRPQEIAMWQPNVEDSTVLDLRGIGQVLPTHLMEERLIRQQQEMEEDQRWLEKEERFLKPDVRLSRGSIDREDGSLQGPIGNQHIYQPVGKPDPAAPPKKPPRPGAPGHLGSLASLSSPADSYNEGVKLQPQEISPPPTANLDRSNDKVYENVTGLVKAVIEMSSKIQPAPPEEYVPMVKEVGLALRTLLATVDETIPLLPASTHREIEMAQKLLNSDLGELINKMKLAQQYVMTSLQQEYKKQMLTAAHALAVDAKNLLDVIDQARLKMLGQTRPH
notes: Protein from cell lysates in co-immunoprecipitation; also called total FAK
